The values below come from PMC10326071.

For orientation: Kd means the equilibrium constant for the complex coming apart. Read a low Kd as higher affinity.

This test has as its target middle domain of human Paip1 (Paip1M) (human) (UniProt Q9H074). The test can be described thus: BLI; […]; 1x PBS pH 7.4, 0.1% surfactant P20, 0.1% BSA, 500 mM NaCl; 25 C; global fit, 1:1 model. A general note: BLI is a label-free optical method that tracks binding on a fibre tip over time.

Chain of middle domain of human Paip1 (Paip1M) (human) (Q9H074 157-375): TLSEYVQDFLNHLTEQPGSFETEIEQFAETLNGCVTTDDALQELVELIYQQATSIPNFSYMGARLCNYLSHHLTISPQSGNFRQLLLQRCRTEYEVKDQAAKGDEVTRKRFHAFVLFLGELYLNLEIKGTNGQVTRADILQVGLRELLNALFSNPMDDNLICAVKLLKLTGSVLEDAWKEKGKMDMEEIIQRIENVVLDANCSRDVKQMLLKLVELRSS

The substance “SARS-CoV-2 SUD-core-CC (domain or fragment)” had a dissociation constant Kd of 7.2 µM.
